Target: 6 × His-tagged recombinant PHB2, Q99623
Assay: SPR

6 × His-tagged recombinant PHB2, Q99623, sequence (Q99623 whole entry): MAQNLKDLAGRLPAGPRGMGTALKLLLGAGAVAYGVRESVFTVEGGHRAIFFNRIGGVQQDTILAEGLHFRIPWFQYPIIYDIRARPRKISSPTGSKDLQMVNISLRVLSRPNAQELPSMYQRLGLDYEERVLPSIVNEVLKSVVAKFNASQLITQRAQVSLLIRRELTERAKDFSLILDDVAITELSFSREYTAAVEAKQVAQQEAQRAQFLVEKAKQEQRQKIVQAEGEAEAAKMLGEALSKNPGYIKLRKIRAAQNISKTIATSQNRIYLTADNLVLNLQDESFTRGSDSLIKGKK

Kd: 18.9 µM
Binder: QMLSDLTLQLRQR (modifications not checked) [ERα activity-regulator synthetic peptide (ERAP)]
